Where two headings read alike, the source gives them in different places. Blank lines part the entries; values can stand above or below the binder they belong to.
Experiments:
[1] = biological target: human TLR2 (endogenous, on U937 cells) (human, UniProt O60603 21-784); test: cell-based or functional assay
[2] = biological target: T1, human TLR2 protein (R&D systems Co., 2616 TR/CF) (human, UniProt O60603 21-590); test: SPR (Biacore T200), human TLR2 captured on anti-His IgG, antibody as analyte, bivalent analyte model
T1 construct: Bought protein captured on an anti-His IgG chip; not shown: His tag implied by capture on anti-His IgG
Description: In order to evaluate the binding activity of the tandem form a prepared in Example 1 to the human TLR2, SPR analysis was performed. The tandem form c and the TLR2-IgG were used as the reference antibody. For SPR analysis, Biacore T200 (GE Healthcare Japan Corporation) was used. Anti-His IgG (attached to His Capture Kit) was immobilized on CMS sensor chip using His Capture Kit (GE Healthcare Japan Corporation, 28-9950-56) and Amine Coupling Kit (GE Healthcare Japan Corporation, BR-1000-50). […] Thereafter, a solution (eight step, two fold serial dilution in the concentration range of final concentration from 100 nM to 0.781 nM) obtained by serially diluting each purified antibody (tandem form a, tandem form c, or TLR 2-IgG) with HBS-EP+buffer was added at a flow rate of 50 μL/min for 2 minutes, and the binding between the purified antibody and TLR 2 was measured. Next, HBS-EP+buffer was added at a flow rate of 50 μL/min for 5 minutes, and dissociation of the purified antibody and the human TLR2 was measured. Bivalent analyte model, Rmax was analyzed by Fit local, a binding rate constant (kₐ) and a dissociation rate constant (kd) were calculated, and kd was divided by kₐ to calculate the binding dissociation constant (KD).

[3] = biological target: T2, human TLR4/MD2 (on cells) (human, UniProt O00206 24-839; Q9Y6Y9 19-160); test: cell-based or functional assay
[4] = biological target: T2, human TLR4/MD2 (on cells); test: cell ELISA on human TLR4/MD2 expressing HEK 293 cells
Description: In order to evaluate the binding activity of the tandem form a (bispecific antibody format having the anti-human TLR2 antibody portion on the outer side and the anti-human TLR4 antibody portion on the inner side) prepared in Example 1 to the human TLR4, cell ELISA was performed. As reference antibodies, the tandem form c and the TLR4-IgG were used. Human TLR4/MD2 expressing HEK 293 cells were seeded at 1×10⁴ cells/well in a BD Bio Coat poly D-lysine 384 well plate (Becton Dickinson Co., Ltd.) using an α-MEM culture medium (Life Technologies Co., Ltd.) and incubated overnight. […] Twenty minutes later, 25 μL of 1 M sulfuric acid was added to stop the color reaction, and the color intensity thereof was measured with Safire II (Tecan Co., Ltd.) to evaluate the binding activity of the antibody. Using the obtained measurement results, 50% effective concentration (EC₅₀) of each antibody was calculated from 4 parameter logistic curve regression by statistical analysis software GraphPad Prism (GraphPad Software Co., Ltd.).

[5] = biological target: T2, human TLR4/MD2 (on cells); test: cell-based or functional assay; remark: listed apart in the source

T2 sequence (O00206 24-839, chain 1 of 2): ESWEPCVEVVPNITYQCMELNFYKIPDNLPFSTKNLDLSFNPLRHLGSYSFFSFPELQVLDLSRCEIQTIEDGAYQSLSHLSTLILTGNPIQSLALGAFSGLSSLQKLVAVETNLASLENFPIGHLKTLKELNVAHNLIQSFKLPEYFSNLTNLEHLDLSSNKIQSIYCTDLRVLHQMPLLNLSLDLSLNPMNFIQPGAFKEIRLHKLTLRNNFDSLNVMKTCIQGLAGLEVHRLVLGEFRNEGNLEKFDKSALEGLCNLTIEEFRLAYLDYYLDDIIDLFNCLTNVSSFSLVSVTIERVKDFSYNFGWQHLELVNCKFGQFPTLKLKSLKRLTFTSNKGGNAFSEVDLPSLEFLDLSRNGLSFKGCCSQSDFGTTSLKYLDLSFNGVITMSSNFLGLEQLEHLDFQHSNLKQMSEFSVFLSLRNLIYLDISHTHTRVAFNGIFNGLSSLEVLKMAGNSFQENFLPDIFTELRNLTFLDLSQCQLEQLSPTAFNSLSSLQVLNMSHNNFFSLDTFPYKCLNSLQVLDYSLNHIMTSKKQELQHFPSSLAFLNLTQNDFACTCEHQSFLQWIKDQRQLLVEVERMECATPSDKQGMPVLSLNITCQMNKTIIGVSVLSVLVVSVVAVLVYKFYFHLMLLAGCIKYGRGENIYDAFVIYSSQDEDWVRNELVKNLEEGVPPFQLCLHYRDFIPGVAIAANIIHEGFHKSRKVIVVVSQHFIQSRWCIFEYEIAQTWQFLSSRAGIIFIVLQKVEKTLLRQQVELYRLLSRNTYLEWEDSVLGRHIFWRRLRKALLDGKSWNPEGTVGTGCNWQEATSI
T2 sequence (Q9Y6Y9 19-160, chain 2 of 2): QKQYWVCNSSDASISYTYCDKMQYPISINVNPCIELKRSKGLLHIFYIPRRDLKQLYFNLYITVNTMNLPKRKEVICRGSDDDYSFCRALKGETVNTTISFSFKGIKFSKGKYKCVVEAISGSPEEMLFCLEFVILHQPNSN
T1 sequence (O60603 21-590): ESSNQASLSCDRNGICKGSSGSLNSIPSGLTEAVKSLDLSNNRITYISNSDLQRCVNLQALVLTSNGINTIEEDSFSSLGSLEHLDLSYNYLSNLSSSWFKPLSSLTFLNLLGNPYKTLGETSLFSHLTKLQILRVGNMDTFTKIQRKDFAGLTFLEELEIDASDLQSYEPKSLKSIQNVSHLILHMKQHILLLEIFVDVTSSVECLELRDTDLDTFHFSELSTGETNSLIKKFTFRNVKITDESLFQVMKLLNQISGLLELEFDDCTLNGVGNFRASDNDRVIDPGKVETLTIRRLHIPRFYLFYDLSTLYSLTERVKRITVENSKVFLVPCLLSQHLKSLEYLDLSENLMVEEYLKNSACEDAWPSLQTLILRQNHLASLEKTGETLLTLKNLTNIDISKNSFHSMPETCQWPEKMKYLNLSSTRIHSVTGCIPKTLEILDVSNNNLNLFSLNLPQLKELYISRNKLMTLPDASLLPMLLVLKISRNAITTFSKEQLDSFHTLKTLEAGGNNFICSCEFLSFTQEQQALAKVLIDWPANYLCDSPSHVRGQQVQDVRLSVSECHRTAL
human TLR2 (endogenous, on U937 cells), sequence (O60603 21-784): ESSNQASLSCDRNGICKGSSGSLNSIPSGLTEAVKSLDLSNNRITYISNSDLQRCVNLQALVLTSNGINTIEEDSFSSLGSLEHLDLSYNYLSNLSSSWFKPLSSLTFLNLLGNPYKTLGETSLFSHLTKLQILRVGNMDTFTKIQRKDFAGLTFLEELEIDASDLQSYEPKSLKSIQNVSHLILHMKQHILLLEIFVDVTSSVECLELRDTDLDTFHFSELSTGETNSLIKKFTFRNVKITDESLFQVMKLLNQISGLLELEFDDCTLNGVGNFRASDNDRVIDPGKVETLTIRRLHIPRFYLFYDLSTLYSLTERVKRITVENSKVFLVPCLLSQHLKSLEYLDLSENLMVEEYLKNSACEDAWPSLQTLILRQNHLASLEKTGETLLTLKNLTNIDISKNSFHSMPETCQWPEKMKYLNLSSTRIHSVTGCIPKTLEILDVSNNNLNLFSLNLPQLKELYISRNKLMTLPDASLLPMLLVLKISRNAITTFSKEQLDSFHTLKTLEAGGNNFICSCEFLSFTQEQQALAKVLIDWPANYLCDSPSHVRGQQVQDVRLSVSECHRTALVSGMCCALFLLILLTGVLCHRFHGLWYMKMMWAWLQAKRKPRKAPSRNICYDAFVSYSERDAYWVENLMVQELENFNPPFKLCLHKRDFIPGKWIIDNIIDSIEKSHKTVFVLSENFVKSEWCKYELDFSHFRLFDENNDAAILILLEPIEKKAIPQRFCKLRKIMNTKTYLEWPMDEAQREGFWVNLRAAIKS

IC50 (read off the curve); inhibition of Pam2CSK4-induced IL-6 production in U937 cells [1]: ~0.1 nM | Kd [2]: 2.69 nM
B1: TLR2-IgG (anti-human TLR2 antibody of IgG type) (antibody, V domains shown)
VH: QVQLQESGPGLVKPSETLSLTCTVSGGSISSFYWTWIRQPPGKGLEWIGYIHYSGSTNYNPSLKSRVTISVDTSKNQFSLTLSSVTAADTAVYYCARRRSMNWFDPWGQGTLVIVSS
VL: AIQMTQSPSSLSASVGDRVTITCRASQVIRNDLGWYQQKPGKAPKFLIYAASSLQSGVPSRFSGSGSGTDFTLTISSLQPEDFATYYCLQDYNYPLTFGGGTKVEIKR
notes: it says variable regions and human Iggamma1 / Igkappa constant regions as used in tandem form a

IC50 (M), Neutralization Activity to Human TLR4 (LPS-induced IL-6 production inhibition, U937 cells) [3]: 2.2e-12 M | EC50 [4]: 0.38 nM | IC50 (M), Neutralization Activity to Human TLR4 (LPS-induced IL-6 production inhibition, U937 cells) [5]: 2.2e-12 M
B2: TLR4-IgG (anti-human TLR4 antibody of IgG type) (antibody, V domains shown)
VH: EVQLVESGGGLVQPGGSLRLSCAASGFTFDTYAMHWVRQAPGKGLEWVAGISWNSGNIGYADSVKGRFTISRDNSKNTLYLQMNSLRAEDTAVYYCAKDWDNWNLFDYWGQGTLVTVSS
VL: DIQMTQSPSSLSASVGDRVTITCRASQSISSWLAWYQQKPGKAPKLLIYKASSLESGVPSRFSGSGSGTDFTLTISSLQPEDFATYYCQQYSSYSWTFGQGTKVEIKR
notes: as for B1

Kd [2]: 2.32 nM
B3: Tandem form a (protease recognition sequence SEQ ID NO: 5; light chain linker SEQ ID NO: 9) (bispecific antibody)
chain 1: not shown
chain 2: AIQMTQSPSSLSASVGDRVTITCRASQVIRNDLGWYQQKPGKAPKFLIYAASSLQSGVPSRFSGSGSGTDFTLTISSLQPEDFATYYCLQDYNYPLTFGGGTKVEIKRTVAAPSVFIFPPSDEQLKSGTASVVCLLNNFYPREAKVQWKVDNALQSGNSQESVTEQDSKDSTYSLSSTLTLSKADYEKHKVYACEVTHQGLSSPVTKSFNRGEC
chain 3: not shown

Source: patent US20170306053A1 (Astellas, published 2017)
